These are literature values, as cited in PMC4031507.

As a reminder, the pKa is the negative logarithm of the acid dissociation constant.

For the data set, the target named is Cys+1 (UniProt position 252, VVKNKCLAEGT).

For “RecA intein (Mtu RecA intein) with C-extein Cys+1 (Mycobacterium tuberculosis)”, the pKa was 5.8.
